Patent US20240116985A1, “STAPLED PEPTIDES AND METHODS THEREOF” (priority 2020, published 2024)
Starred links: 1 amine or outer side, 2 acyl side, 3 side chain; linkers in the order of their positions; H or OH if unused. Positions of bridges follow the written chain, without caps; N, C: chain ends. Non-standard residues stand in square brackets, D forms with d. Primed or numbered codes have the meaning given here. *: point of attachment. PyrS2″ = (S)-3-amino-1-((pent-4-en-1-yloxy)carbonyl)pyrrolidine-3-carboxylic acid (stapling residue), C=CCCCOC(=O)N1CC[C@@](N[*:1])(C(=O)[*:2])C1; B5(5) = 2,2-bis(4-pentenyl)glycine, 2-amino-2-(pent-4-en-1-yl)hept-6-enoic acid (stitching residue), C=CCCCC(CCCC=C)(N[*:1])C(=O)[*:2]; PyrS2 = (S)-3-amino-1-((pent-4-en-1-yloxy)carbonyl)pyrrolidine-3-carboxylic acid, C=CCCCOC(=O)N1CC[C@@](N[*:1])(C(=O)[*:2])C1; B5(25) = 2-amino-2-(pent-4-en-1-yl)hept-6-enoic acid (stitching residue), C=CCCCC(CCCC=C)(N[*:1])C(=O)[*:2]; Phe(3-COOH) = N[C@@H](Cc1cccc(C(=O)O)c1)C(=O)O; Phe(2-CF3) = N[C@@H](Cc1ccccc1C(F)(F)F)C(=O)O; Phe(2-Cl) = N[C@@H](Cc1ccccc1Cl)C(=O)O; Bta = N[C@@H](Cc1csc2ccccc12)C(=O)O; αAllylPro = C=CC[C@@]1(C(=O)O)CCCN1; tBuAla = CC(C)(C)C[C@H](N)C(=O)O; 3Thi = N[C@@H](Cc1ccsc1)C(=O)O; R5 = C=CCCC[C@@](C)(N)C(=O)O; Propioloyl = C#CC(=O)*; Aib = CC(C)(N)C(=O)O

biological target: B-cat-Halo (beta-catenin HaloTag NanoBRET construct expressed in HEK293 cells) (UniProt P35222); experiment: NanoBRET in HEK293 cells, Bcat-Halo / TCF4-Luc (competitor TCF4-Luc); absolute IC50
Sequence (P35222 whole entry): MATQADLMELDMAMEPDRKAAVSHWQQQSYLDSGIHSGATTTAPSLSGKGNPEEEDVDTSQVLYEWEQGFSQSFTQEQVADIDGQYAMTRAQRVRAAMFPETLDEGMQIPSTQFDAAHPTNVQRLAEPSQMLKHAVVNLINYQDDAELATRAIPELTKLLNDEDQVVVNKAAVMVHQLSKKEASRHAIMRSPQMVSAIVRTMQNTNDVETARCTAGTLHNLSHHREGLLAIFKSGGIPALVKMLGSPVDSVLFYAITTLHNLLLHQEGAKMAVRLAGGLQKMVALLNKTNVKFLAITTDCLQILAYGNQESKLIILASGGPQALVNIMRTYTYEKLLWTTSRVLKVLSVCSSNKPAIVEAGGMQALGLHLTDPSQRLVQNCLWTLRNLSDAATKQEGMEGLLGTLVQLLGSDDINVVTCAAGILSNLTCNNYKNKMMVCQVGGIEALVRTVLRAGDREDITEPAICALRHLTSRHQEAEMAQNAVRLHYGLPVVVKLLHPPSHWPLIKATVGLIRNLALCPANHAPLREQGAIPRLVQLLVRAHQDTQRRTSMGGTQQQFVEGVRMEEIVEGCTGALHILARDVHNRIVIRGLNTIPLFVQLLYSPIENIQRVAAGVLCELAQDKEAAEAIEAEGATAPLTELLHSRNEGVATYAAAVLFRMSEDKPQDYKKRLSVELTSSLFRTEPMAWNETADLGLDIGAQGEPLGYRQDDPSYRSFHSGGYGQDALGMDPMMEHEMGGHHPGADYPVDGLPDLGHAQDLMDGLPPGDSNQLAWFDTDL

Row | Binder | IC50 [nM]
1 | Ac-[αAllylPro]D[tBuAla][B5(5)]D[Phe(3-COOH)]AAFL[PyrS2][Phe(2-CF3)][Bta]QAA-NH2 (staple 1-4, 4-11) [I-2399] | 2800
2 | Ac-[αAllylPro]D[tBuAla][B5(5)]NT[Aib]AFT[PyrS2][3Thi][Bta]Q-NH2 (staple 1-4, 4-11) [I-2409] | 50000
3 | Propioloyl-[αAllylPro]D[tBuAla][B5(5)]D[Phe(3-COOH)]AAFL[PyrS2″][Phe(2-Cl)][Bta]A-NH2 (staple 1-4, 4-11) [I-2403] | > 20000
4 | Ac-[αAllylPro]D[tBuAla][B5(5)]D[Phe(3-COOH)]AAFL[PyrS2][Phe(2-CF3)][Bta]QFA-NH2 (staple 1-4, 4-11) [I-2400] | 2500
5 | Ac-[αAllylPro]D[tBuAla][B5(5)]NT[Aib]AFN[PyrS2″][3Thi][Bta]T-NH2 (staple 1-4, 4-11) [I-2416] | > 20000
6 | Ac-[αAllylPro]D[tBuAla][B5(5)]NT[Aib]AFN[PyrS2″][3Thi][Bta]H-NH2 (staple 1-4, 4-11) [I-2414] | > 20000

Results, then the binder that gave them:

Row | IC50 [nM] | Binder
7 | 4400 | Ac-[αAllylPro]D[tBuAla][B5(5)]D[Phe(3-COOH)]AAFL[PyrS2][Phe(2-CF3)][Bta]QVA-NH2 (staple 1-4, 4-11) [I-2401]
8 | > 20000 | Ac-[αAllylPro]D[tBuAla][B5(5)]NT[Aib]AFN[PyrS2″][3Thi][Bta]N-NH2 (staple 1-4, 4-11) [I-2415]
9 | 8300 | Ac-[αAllylPro]D[tBuAla][B5(5)]D[Phe(3-COOH)]AAFL[PyrS2][Phe(2-CF3)][Bta]QL[dL]-NH2 (staple 1-4, 4-11) [I-2396]
10 | 7800 | Ac-[αAllylPro]D[tBuAla][B5(5)]D[Phe(3-COOH)]AAFL[PyrS2][Phe(2-CF3)][Bta]QL[dT]-NH2 (staple 1-4, 4-11) [I-2397]
11 | > 20000 | propiolyl-[αAllylPro]D[tBuAla][B5(5)]DDAAFQ[PyrS2][3Thi][Bta]H-NH2 (staple 1-4, 4-11) [I-2402]
12 | > 20000 | Ac-[αAllylPro]D[tBuAla][B5(5)]NT[Aib]AFR[PyrS2][3Thi][Bta]Q-NH2 (staple 1-4, 4-11) [I-2407]
13 | > 20000 | Ac-[αAllylPro]D[tBuAla][B5(5)]NT[Aib]AFH[PyrS2″][3Thi][Bta]Q-NH2 (staple 1-4, 4-11) [I-2410]

biological target: full-length beta-Catenin (Uniprot ID P35222) (Homo sapiens (Human)) (UniProt P35222); experiment: fluorescence polarization competition; full-length beta-catenin, 5FAM-TCF4 10-53 probe as competitor
Target sequence in this assay (P35222 whole entry, one chain of several): as the sequence (P35222 whole entry) above

Row | IC50 [nM] | Binder
14 | 2960 | Ac-[R5]AD[tBuAla][B5(25)]D[Phe(3-COOH)]AAFL[PyrS2″][Phe(2-CF3)][Bta]Q-NH2 (staple 1-5, 5-12 (inferred); also: staple -CH=CH- reduced to -CH2-CH2-) [I-2574]

biological target: full-length beta-Catenin (Uniprot ID P35222) (Homo sapiens (Human)) (UniProt P35222); experiment: fluorescence polarization competition; full-length beta-catenin, competitor 5FAM-TCF4(10-53) probe
Target sequence in this assay (P35222 2-781 limits assumed): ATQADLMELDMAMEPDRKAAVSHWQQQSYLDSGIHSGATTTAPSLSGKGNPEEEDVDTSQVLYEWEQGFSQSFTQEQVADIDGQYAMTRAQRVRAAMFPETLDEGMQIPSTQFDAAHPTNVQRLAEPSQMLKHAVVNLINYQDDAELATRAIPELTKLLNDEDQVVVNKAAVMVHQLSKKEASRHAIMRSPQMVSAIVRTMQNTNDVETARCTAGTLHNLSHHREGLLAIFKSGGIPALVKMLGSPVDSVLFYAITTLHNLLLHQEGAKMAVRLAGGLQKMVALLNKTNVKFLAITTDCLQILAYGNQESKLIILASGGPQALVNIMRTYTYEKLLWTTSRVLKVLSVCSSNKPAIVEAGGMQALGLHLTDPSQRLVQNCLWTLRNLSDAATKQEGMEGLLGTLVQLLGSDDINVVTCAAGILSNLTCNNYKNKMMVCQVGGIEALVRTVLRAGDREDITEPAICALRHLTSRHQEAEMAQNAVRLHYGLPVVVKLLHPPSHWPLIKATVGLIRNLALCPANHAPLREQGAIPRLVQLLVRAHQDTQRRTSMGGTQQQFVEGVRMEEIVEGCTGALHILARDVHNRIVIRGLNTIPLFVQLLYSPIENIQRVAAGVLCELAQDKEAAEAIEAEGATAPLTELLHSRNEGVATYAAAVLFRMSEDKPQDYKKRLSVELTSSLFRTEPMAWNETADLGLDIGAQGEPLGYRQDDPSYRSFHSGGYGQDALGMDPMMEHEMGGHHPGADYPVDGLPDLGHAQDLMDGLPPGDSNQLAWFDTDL

Row | Binder | IC50 [nM]
15 | Ac-[αAllylPro]D[tBuAla][B5(5)]D[Phe(3-COOH)]AAFL[PyrS2][Phe(2-CF3)][Bta]QAA-NH2 (staple 1-4, 4-11) [I-2399] | 17
16 | Ac-[αAllylPro]D[tBuAla][B5(5)]NT[Aib]AFT[PyrS2][3Thi][Bta]Q-NH2 (staple 1-4, 4-11) [I-2409] | 397
17 | Propioloyl-[αAllylPro]D[tBuAla][B5(5)]D[Phe(3-COOH)]AAFL[PyrS2″][Phe(2-Cl)][Bta]A-NH2 (staple 1-4, 4-11) [I-2403] | 12
18 | Ac-[αAllylPro]D[tBuAla][B5(5)]D[Phe(3-COOH)]AAFL[PyrS2][Phe(2-CF3)][Bta]QFA-NH2 (staple 1-4, 4-11) [I-2400] | 142
19 | Ac-[αAllylPro]D[tBuAla][B5(5)]NT[Aib]AFN[PyrS2″][3Thi][Bta]T-NH2 (staple 1-4, 4-11) [I-2416] | 133
20 | Ac-[αAllylPro]D[tBuAla][B5(5)]NT[Aib]AFN[PyrS2″][3Thi][Bta]H-NH2 (staple 1-4, 4-11) [I-2414] | 7

Next, values leading:

Row | IC50 [nM] | Binder
21 | 37 | Ac-[αAllylPro]D[tBuAla][B5(5)]D[Phe(3-COOH)]AAFL[PyrS2][Phe(2-CF3)][Bta]QVA-NH2 (staple 1-4, 4-11) [I-2401]
22 | 147 | Ac-[αAllylPro]D[tBuAla][B5(5)]NT[Aib]AFN[PyrS2″][3Thi][Bta]N-NH2 (staple 1-4, 4-11) [I-2415]
23 | 187 | Ac-[αAllylPro]D[tBuAla][B5(5)]D[Phe(3-COOH)]AAFL[PyrS2][Phe(2-CF3)][Bta]QL[dL]-NH2 (staple 1-4, 4-11) [I-2396]
24 | 53 | Ac-[αAllylPro]D[tBuAla][B5(5)]D[Phe(3-COOH)]AAFL[PyrS2][Phe(2-CF3)][Bta]QL[dT]-NH2 (staple 1-4, 4-11) [I-2397]
25 | 16 | propiolyl-[αAllylPro]D[tBuAla][B5(5)]DDAAFQ[PyrS2][3Thi][Bta]H-NH2 (staple 1-4, 4-11) [I-2402]
26 | 138 | Ac-[αAllylPro]D[tBuAla][B5(5)]NT[Aib]AFR[PyrS2][3Thi][Bta]Q-NH2 (staple 1-4, 4-11) [I-2407]
27 | 304 | Ac-[αAllylPro]D[tBuAla][B5(5)]NT[Aib]AFH[PyrS2″][3Thi][Bta]Q-NH2 (staple 1-4, 4-11) [I-2410]
